{"source": "patent US20250340655A1", "about": "“EPHA2-TARGETING ANTIBODIES AND THEIR APPLICATIONS IN CANCER TREATMENT” (TAIPEI MEDICAL UNIVERSITY, priority 2022, published 2025)", "molecules": {"B1": {"name": "IgG hSD5: complete humanized anti-EphA2 IgG (IgG1) of hSD5 (antibody, V domains shown)", "VH": "QVQLVESGGGLVQPGGSLRLSCAASGFTFSDYGMGWVRQAPGKGLEWVAGISAAGSFTPYGAAVKGRFTISRDNSKNTVYLQMNSLRAEDTAVYYCARIPSGYRAGEIYTWGQGTLVTVSS", "VL": "LTQPPSVSVSPGQTVRITCSGSSGSYGWYQQKSPGQAPVTLIYDNDKRPSGIPERFSGSSSGSTSTLTISGVQAEDEADYYCGSADSSTYVGMFGGGTKLTVL"}}, "target": "T1, endogenous EphA2 molecules on cholagiocarcinoma cell lines (HuCCT1, ssp-25, RBE, TFK) and bladder cancer cell line (PC-3) (Homo sapiens, UniProt P29317)", "T1 construct": "endogenous in cells; host or cells: HuCCT1, ssp-25, RBE, TFK, PC-3", "T1 sequence (P29317 24-976)": "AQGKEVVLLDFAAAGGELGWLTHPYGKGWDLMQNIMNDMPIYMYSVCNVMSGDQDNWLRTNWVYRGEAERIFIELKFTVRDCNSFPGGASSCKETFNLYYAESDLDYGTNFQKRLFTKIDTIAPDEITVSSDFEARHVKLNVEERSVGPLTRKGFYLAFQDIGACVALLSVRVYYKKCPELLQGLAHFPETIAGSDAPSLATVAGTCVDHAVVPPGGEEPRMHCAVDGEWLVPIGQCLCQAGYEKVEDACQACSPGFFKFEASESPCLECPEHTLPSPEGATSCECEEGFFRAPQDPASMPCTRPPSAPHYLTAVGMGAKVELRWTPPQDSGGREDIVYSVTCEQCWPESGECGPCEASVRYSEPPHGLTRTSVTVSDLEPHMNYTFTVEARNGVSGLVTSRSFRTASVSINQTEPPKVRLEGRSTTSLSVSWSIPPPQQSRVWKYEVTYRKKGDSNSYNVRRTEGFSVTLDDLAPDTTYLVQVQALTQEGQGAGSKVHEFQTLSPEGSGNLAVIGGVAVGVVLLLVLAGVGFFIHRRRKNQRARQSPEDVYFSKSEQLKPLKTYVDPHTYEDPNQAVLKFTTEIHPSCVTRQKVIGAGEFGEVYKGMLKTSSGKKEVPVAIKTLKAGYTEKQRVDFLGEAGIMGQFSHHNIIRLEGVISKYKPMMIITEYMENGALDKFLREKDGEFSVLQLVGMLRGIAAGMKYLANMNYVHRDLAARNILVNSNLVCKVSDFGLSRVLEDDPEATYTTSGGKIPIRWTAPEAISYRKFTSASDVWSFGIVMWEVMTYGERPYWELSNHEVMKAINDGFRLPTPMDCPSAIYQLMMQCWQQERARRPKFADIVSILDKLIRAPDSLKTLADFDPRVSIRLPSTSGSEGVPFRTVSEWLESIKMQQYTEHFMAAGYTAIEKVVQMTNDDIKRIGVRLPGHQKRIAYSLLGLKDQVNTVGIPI", "test": "Flow cytometry binding on cholagiocarcinoma and bladder cancer cell lines", "conditions": "cholagiocarcinoma and bladder cancer cell lines (FIG. 17B)", "from_the_text": "Flow cytometry was used to analyze the response of hSD5 IgG with different concentrations in identifying endogenous EphA2 molecules on the four strains of cholagiocarcinoma cell lines and bladder cancer cell line. PC represents the use of commercial Ab to determine the expression of EphA2 on cancer cells.", "data": [{"molecule": "B1", "values": [{"measurement": "binding response to EphA2 molecules on cancer cells", "value": "significant binding response"}]}]}
